# Test results from patent KR20200067522A (dated 2020).
# B1: 단일클론항체 3F9 (인간 IgG로 전환) (antibody, V domains shown)
# VH: EVQLVESGGGLVQPGGSLRLSCAASGFTFSDYAMSWVRQAPGKGLEWVSAISSSSGNKYYADSVKGRFTISRDNSKNTLYLQMNSLRAEDTAVYYCAKLGVRETLSWYFDLWGQGTLVTVSS
# VL: DIQMTQSPSSLSASVGDRVTITCRASQSISNYLNWYQQKPGKAPKLLIYAASRLQSGVPSRFSGSGSGTDFTLTISSLQPEDFATYYCQQSYSFPWTFGQGTKVEIK
# notes: Human IgG made from a Fab of a human synthetic Fab library; kappa light chain is only implied by the anti-human kappa ELISA
# Tests used:
# [1] = target: T1, CRM 197 의 A 단편(21kDa) (Corynebacterium diphtheriae C7 (β197) …, UniProt P00588 33-225); assay: western blot of trypsin/DTT-cleaved CRM197
# T1 construct: domain: A 단편(21kDa); Band on a reducing SDS-PAGE / western blot after trypsin digestion
# [2] = target: T2, CRM 197 (Cross-reactive material 197) (Corynebacterium diphtheriae C7 (β197) …, UniProt P00588 33-567); assay: BLI (Octet Red), CRM197 in two-fold dilutions of 50 to 3.13 nM
# T2 construct: mature; Purified to more than 95% purity from the fermentation supernatant
binder,measurement,setting,value
B1,binding result,[1],no binding
same,Kd,[2],4.45 nM
